The supplement of paper PMC12042874
± gives the uncertainty stated by the source.

Test: amyloid nucleation score (Sup35N fusion, yeast selection) (log enrichment); library NNK2; higher = more nucleation; inactive = no reads after selection
Summary of the method: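 Using DiMSum, nucleation scores were taken as the log enrichment of output over input reads, centred on the mode score of non-aggregating sequences. The input and output reads came from Illumina sequencing of plasmid inserts, with sequences under 100 input reads excluded. The yeast were psi-negative, expressed Sup35N fused to peptides of 20 random codons, were induced with 100 μM copper sulfate for 24 hours, and were grown 7 days at 30°C on medium lacking adenine and uracil.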

Row | Substance | amyloid nucleation score
1 | VDYVGSYTVSEDREENLAKP | 3.75 ± 0.096
2 | VDYYDIQCL | 0.649 ± 0.36
3 | VEAWGP | -0.948 ± 0.45
4 | VEFNNAFNNCSLLFSDPRSS | 3.34 ± 0.12
5 | VEMSEDEPCLWYGSLIPGTR | 2.83 ± 0.18
6 | VERRVGEVRFIDAGVFGLGY | inactive
7 | VERVPGCTRTRTFWLNSSDW | 0.591 ± 0.25
8 | VETMY | 1.24 ± 0.43
9 | VEVYTVSSYVDYVYPDCRGV | 0.418 ± 0.62
10 | VFEVDLFWRSKFNSCLLPFR | -0.95 ± 0.36
11 | VFGYTSRR | 3.49 ± 0.057
12 | VFIMRISCY | -0.424 ± 1.1
13 | VFLAPRMF | -0.864 ± 0.45
14 | VFLVCYTYLWTFKSCTYFMN | -1.88 ± 0.78
15 | VFLYAYYLNI | 0.039 ± 0.77
16 | VFTYLSSDFYTGWTMVNHIM | -0.357 ± 0.21
17 | VFYNAASDFLAILQEFTSSH | inactive
18 | VGAMLKWLT | 0.378 ± 0.23
19 | VGDCITAWRSWNNCFVGYGP | 3.2 ± 0.053
20 | VGFRSSCMVTSLIY | -1.64 ± 0.44
21 | VGFSNGLDFDAVFNMKCQQW | -0.965 ± 0.41
22 | VGGFRGRVTSHSPMRMCIQR | -0.114 ± 1

Row | Substance | amyloid nucleation score
23 | VGGGVHGEFGHHYCPSVLGL | 1.81 ± 0.2
24 | VGGLFYLLLMG | -0.865 ± 0.53
25 | VGGYLAICNGLSSLCLDPG | -0.59 ± 1.1
26 | VGIFLKSYV | -1.32 ± 1
27 | VGKMVNVDGRSPSCWSVWH | 0.47 ± 0.13
28 | VGNIGPT | 0.338 ± 0.46
29 | VGRVHSLSDYCDFGKSWFKY | -0.864 ± 0.74
30 | VGSSHQSLEATKWGVVVLCR | 6.569 ± 0.049
31 | VGVVVNFRASGPGFE | 8.288 ± 0.061
32 | VGVWTALTPCKVVFTSDRLS | 1.23 ± 0.4
33 | VGYSEMGVADLGHGGW | 1.15 ± 0.31
34 | VHDFTRNRKWWDNLWSDRSM | 0.399 ± 0.47
35 | VHDQIPE | 0.071 ± 0.79
36 | VHELCTYNLFEPVCSLVWYR | 9.545 ± 0.05
37 | VHGRGNLKA | 0.032 ± 0.33
38 | VHPSDGAGLYS | -1.34 ± 0.78
39 | VHRSLSLFSFKSSECRPS | 6.456 ± 0.064
40 | VHRTEVRLLSQGTRYVSCNS | 2.06 ± 0.3
41 | VHVRGACCHGCRARNVSGHP | 1.05 ± 0.19
42 | VICFAMSMILR | 3.38 ± 0.13
43 | VIGRYIDYC | -0.13 ± 0.27
44 | VIKTFVILDVYAGLSCQC | 1.25 ± 0.34

Row | Substance | amyloid nucleation score
45 | VILNYSRY | 4.5 ± 0.078
46 | VIMMSNNSERYYVEQIFVSG | 0.09 ± 0.41
47 | VINLGGSE | 0.406 ± 0.38
48 | VIPFISIRLCAAVRVFVPQS | 5.04 ± 0.075
49 | VISNHPETTDTNRVLLYVLG | 0.411 ± 0.53
50 | VISYMFRSTGVFNT | 2.73 ± 0.19
51 | VIVGSLRCHFSLVAWVKC | 0.651 ± 0.51
52 | VKALNKLGAKINLMIRFVRS | -0.306 ± 0.39
53 | VKCKRCSASSFAIYVEYCCT | 0.138 ± 0.17
54 | VKEYYSTGSTWRLYWMWSDW | 0.282 ± 0.36
55 | VKLMY | -1.12 ± 0.62
56 | VKNFYVNIFQCGIPPPFKEM | 7.668 ± 0.026
57 | VKSTSFPTWMISMIGQRTAH | -0.711 ± 1.1
58 | VKVGSSTRRGSGVPSGPKLG | 1.04 ± 0.52
59 | VKVPYMLARGLDQKGTRRWQ | 8.102 ± 0.064
60 | VLAARVTTYHLCVSEDVVTL | 2.9 ± 0.15
61 | VLCRRHSN | 1.41 ± 0.38
62 | VLCTYRGLDITL | 0.166 ± 0.21
63 | VLDSAYCAFVYFFIVVIWWF | -0.595 ± 0.61
64 | VLDYSTHIEFGQRRVVGFAR | -0.321 ± 1
65 | VLFDGKPMEVFFWCLPEWVF | inactive
66 | VLFSHQDEGLWHIHVHF | 3.28 ± 0.052

Row | Substance | amyloid nucleation score
67 | VLGGPTVRLSWFPSSGLACY | 0.23 ± 0.65
68 | VLGWCCLVLSILLKCEKVGL | -0.095 ± 1.1
69 | VLILDVVYSLDESEVSVVWY | -0.429 ± 0.42
70 | VLIVFNNPCFMGWALVDVVL | 8.194 ± 0.053
71 | VLLFLSMEVLNRNGMKVPVM | 2.17 ± 0.16
72 | VLNGRTEWTKQVDFIYFITD | -0.464 ± 1.1
73 | VLPGVSFFTYRFKKF | inactive
74 | VLRRIVMMLSIS | -0.069 ± 0.32
75 | VLSCCIPKKNSYWTVTDQPC | 8.266 ± 0.033
76 | VLSSRSEDTGQACEVIICVV | 0.693 ± 0.34
77 | VLVDTSDRWLMARWLGVPKP | 4.79 ± 0.084
78 | VLVEGVQCYSENRTNT | 1.49 ± 0.41
79 | VLVRS | 0.157 ± 1
80 | VLVSVVRCDVVAAVRCVQM | 3.56 ± 0.11
81 | VLVTRIEWMGESTCMSLVNY | 2.69 ± 0.12
82 | VLVVSRA | -0.514 ± 0.45
83 | VLYFLYGKWQKTQRSNRYLQ | -0.674 ± 0.76
84 | VLYHFEISA | -0.011 ± 0.54
85 | VLYLLKSSSFSTGVNSRCMR | -0.256 ± 1.1
86 | VLYSRVLDGRESTNLGRL | inactive
